Reference: the Human Domainome abundance scans (Beltran et al. 2025)

B1: SAM and SH3 domain-containing protein 1, residues 630 to 700; numbered along this chain, O94885 (parent)
chain: GRPPQPKSVEDLLDRINLKEHMPTFLFNGYEDLDTFKLLEEEDLDELNIRDPEHRAVLLTAVELLQEYDSN

Variants of: B1
Assay: abundance fitness (aPCA) (normalised: wild type 0, dead -1); higher = more abundant; growth selection in yeast, the domain comes from the species named
Settings: Homo sapiens

Abundance fitness of substitutions, site by site:
E40: G 0.171; Q 0.222; W -0.933; N 0.196; I -0.431; S 0.252; C 0.186; Y -0.829; F -1.01; D 0.011; T 0.398; R 0.337; M -0.246; K 0.347; V -0.088; P -0.914
E41: W -0.567; V -0.495; I -0.588; L -0.635; N -0.408; S -0.34; M -0.578; A -0.075; R -0.499; H -0.7; F -0.971; C -0.483; D -0.419; G -0.465; K -0.302
D51: E -0.369; V -0.553; N -0.159; M -0.845; C -0.396; W -0.862; H -0.447; R -0.611; Y -0.774; L -0.632; S -0.49; T -0.505; Q -0.307; G -0.75; A -0.659
P52: F -1.04; L -0.61; V -0.5; T -0.437; W -0.782; E -0.317; Y -1.02; N -0.569; G -0.71; R -0.499; Q -0.424; C -0.565; S -0.354
N48: T -0.916; A -0.343; S -0.388; I -0.985; W -0.775; H -0.056; C -0.273; P -0.837; F -0.983; E 0.084; R -0.319; G 0.197; V -1.21; D 0.024; L -0.741; M -0.516; Q -0.393
H54: E 0.13; G -0.832; C -0.678; F -1.03; I -0.458; A -0.169; K -0.496; D -0.02
F36: Q -0.705; E -0.678; M -0.354; I -0.531; T -0.64; S -0.749; Y -0.878; K -1.19; H -0.638; V -0.495; A -0.717; N -0.719; R -0.794; P -0.9; C -0.849; L -0.365; W -0.712; G -0.642
E53: C -0.23; T -0.207; Q -0.051; K -0.131; V -0.283; H -0.09; A -0.089; I -0.542; P -0.924; S -0.126; L -0.486; F -0.673; W -0.575; Y -0.557; N -0.146; R -0.266
D43: V -0.456; W -0.928; E -0.503; H -0.201; S -0.359; F -1.05; C -0.713; I -0.584; P -0.939; G -0.444; T -0.19; A -0.325; M -0.594; N -0.058; K -0.117; Y -0.953; L -0.894; R -0.385; Q -0.142
I49: C -0.728; F -0.851; N -0.926; A -0.98; E -0.79; R -0.831; Y -0.869; P -1; G -0.785; T -0.863; Q -0.92; H -0.784; V -0.398; W -0.823; K -0.863; L -0.868; S -0.876
T35: F -0.911; V -0.492; W -0.973; D 0.108; S 0.104; G -0.442; A 0.067; N -0.159; C -0.206; Y -0.587; M -0.312; R 0.135; H 0.022; L -0.515; E -0.211
L38: Y -0.117; M -0.011; R -0.041; K 0.117; D -0.175; H 0.029; G -0.061; T 0.23; V -0.492; S -0.005; E 0.03; I -0.76; P -0.857; Q 0.175; N 0.054; F -0.234; A -0.063
L33: V -0.607; E -0.962; P -0.896; H -0.791; Q -0.73; F -0.697; K -1; M -0.64; Y -1.15; T -0.828; N -0.764; I -0.187; R -0.926; S -0.812; W -1.19
L44: M -0.702; W -0.773; E -0.757; K -0.746; S -0.875; D -0.819; H -0.941; F -0.38; Y -0.755; R -0.904; P -0.764; V -0.791; A -0.779; Q -0.873; N -0.822; G -0.819; C -0.598
L39: E -0.771; D -0.799; V -0.422; I 0.058; M -0.319; Y -0.929; K -0.928; Q -0.892; A -0.881; F -0.973; S -0.818; N -0.851; R -0.861; H -0.812; T -0.79; W -1.19; G -0.812
D45: W -0.499; Q -0.557; A -0.622; Y -0.496; K -0.135; E -0.276; H -0.538; G -0.812; F -0.48; V -0.151; T -0.38; P -0.833; C -0.416; I 0.037; R -0.415; N -0.272; L -0.113; M -0.247; S -0.544
K37: S -0.337; F -0.946; C -0.449; E -0.64; A -0.226; M -0.16; Q -0.478; L -0.555; G -0.669; I -0.848; N -0.799; H -0.76; D -0.791; Y -1.11; T -0.615; R -0.211
D34: E 0.041; L -0.67; M -0.518; V -0.719; H -0.426; T -0.415; P -0.664; Q -0.116; N -0.123; A -0.145; K -0.291; C -0.468; R -0.465; W -0.704; S -0.158; Y -0.679; I -0.793
E42: C -0.222; V -0.302; G 0.013; L -0.6; S 0.102; A 0.104; Q -0.023; F -0.743; Y -0.539; M -0.476; I -0.477; W -0.618; H 0.055; K 0.283; P -0.124; N -0.094; T 0.035
L47: Y -0.783; D -0.828; I -0.671; V -0.781; F -0.828; Q -0.805; R -0.922; P -0.799; M 0.017; H -0.788; E -0.765; W -0.959; A -0.698; K -0.781; C -0.577
R50: G -0.371; K 0.032; N -0.027; D -0.057; F -0.071; Y -0.012; I -0.11; S -0.06; W 0.003; T 0.183; H 0.072; A -0.301; L 0.091; E -0.146; Q 0.039
